Experiments:
[1] = tested on: blood vessels of normal mice; assay: Vascular toxicity in normal mice; format: in vivo, mouse; conditions: C57BL/6, 5 mg/kg i.p. solely or with 20 ug Ang2, every three days, 6 times
Description: The vascular toxicity of antibody 10D6 was tested.
In particular, 5 mg/kg of antibody 10D6 was administered to normal 6-week old C57BL/6 mice (Jackson Laboratory) solely or combined with 20 ug of Ang2 via an intraperitoneal injection every three days a total of 6 times, and then, the weight of the mice was measured. After 20 days, various tissues including thyroid, parathyroid, and adrenal gland were removed from the mice, and frozen sections were obtained therefrom. The frozen sections were immunostained using hamster anti-CD31 antibody (1:200, Millipore), and the changes were observed. A group administered with 20 ug of Ang2 solely was used for comparison.

Tie2 receptor = assay: Internalization of Tie2 receptor in HUVEC (confocal microscopy); format: cell-based, human
Description: HUVEC (ATCC) cells (1×10^6) were cultured in m-slide 8 wells (#80826, ibidi) for 24 hours and then subjected to serum starvation in serum-free EBM-2 media (Lonza) for 3 hours. 200 ng/ml of Ang1 (R&D systems) or 2ug/ml of Ang2 (R&D systems) and 10 ug/ml of antibody 10D6 were each diluted in EBM-2 media and then, the cells were treated with them and incubated according to time specified in the picture. The cells fixed with 4% formaldehyde (Sigma) was dyed first with an anti-Tie2 antibody (R&D systems) and then subjected to a secondary dye with an anti-goat Alexa 555 antibody (red, Life technology) and an anti-mouse Alexa 488 antibody (green, Life technology). The dyed cells were treated with Vectashield mounting medium with DAPI (Vector labs) and then observed using a confocal laser scanning microscopy (Carl Zeiss).

Tie2 and Akt = assay: In vivo phosphorylation of Tie2 and Akt in mouse lung tissue; conditions: C57BL6 mouse; 5 mg/kg antibody alone or with 20 ug Ang2, tail vein; 1 hour
Description: In addition, the phosphorylation of Tie2 receptor and a protein (Akt) which participates in downstream signaling of Tie2 by treating anti-Ang2 antibody was measured in animal model (in vivo). More particularly, 5 mg/kg of antibody was injected alone or together with 20 ug of Ang2 into tail vein of 7-8 week old C57BL6 mouse, and 1 hour after, lung tissue was removed. The obtained lung tissue was subjected to homogenization lysis using lysis buffer (Roche) and FastPrep kit (MP biomedicals). Activities of Tie2 and Akt in the obtained tissue lysate were measured by the above-described method.

[2] = tested on: HL-60 cells adhered to HUVEC cells; assay: Binding between inflammatory cells HL-60 and HUVEC induced by TNF-a; format: cell-based, human; conditions: 1 ng/ml TNF-a; 0.2 ug/ml Ang1 or 0.1 ug/ml Ang2 + 0.5 ug/ml 10D6
Description: Meanwhile, if the expression of inflammatory adhesion substances (ICAM-1, E-selectin, etc.) of vascular endothelial cells is increased, binding between the inflammatory cells and the vascular endothelial cells are accelerated and inflammatory response is thus induced. To confirm this, an experiment for measuring binding between inflammatory cells HL-60 (ATCC) and HUVEC was conducted.
HUVEC cells (4×10^5) were cultured in a 24-mutiwell plate and treated with 0.1 ug/ml of Ang2 alone or 0.1 ug/ml of Ang2 together with 0.5 ug/ml of antibody 10D6, and a group in which 0.2 ug/ml of Ang1, and 0.1 ug/ml of Ang2 (R&D systems) and 0.5 ug/ml of Regeneron Co. antibody (RG antibody) were co-treated was included as a control group. As above, the HUVEC cells were treated with Angiopoietin and antibody and after 30-min. pre-incubation, they were treated with 1 ng/ml of TNF-a (eBioscience) to induce inflammatory response and incubated for 2 hours and 30 min.
After the HUVEC cells were washed with complete media (Lonza), HL-60 cells dyed with Calcein-AM (BD bioscience) solution were added at the amount of 2.5×10^5 cells to each well and incubated for 1 hour. […] The obtained lysate was transported to a 96-well plate, and fluorescence strengths derived from the HL-60 cells were measured at 485/535 nm (Ex/Em) setting using an Envision 2104 multilabel Reader (Perkin Elmer).

[3] = tested on: lymphatic endothelial cells; assay: Cell migration assay (xCelligence RTCA); format: cell-based; conditions: 2 ug/ml Ang2 with antibody; slope (1/hr)
Description: Also, the measurement of the mobility of lymphatic endothelial cells was conducted using xCelligence RTCA (Realtime cell analyzer; GE Healthcare). The RTCA is a non-invasive cell monitoring system by measuring impedance in real time to identify the change of a cell. To perform a cell migration assay, a CIM-plate16 (GE Healthcare) with a lower chamber and an upper chamber was used wherein microelectrodes for measuring impedance are arranged in the upper chamber and if the cells seeded into the chamber migrate through fine holes, the migration degree of the cells can be identified through their adhesion to the microelectrodes, and it was referred to as migration index. The lymphatic endothelial cells (P5-7; Lonza) which grew up in EGM-2 media (Lonza) were cultured in 1% FBS-added EBM media for 6 hours. 2 ug/ml of Ang2 and antibody 10D6 in 2% FBS-added EBM media were added to each well of the lower chamber of the CIM-plate 16, which was assembled with the upper chamber coated with fibronectin (Sigma). For efficiency comparison, an anti-Ang2 antibody (MedImmune Co.) was used. 30 ul of serum-free EBM media was each added to the upper chamber and then, for equilibration between the plate and media, while being placed in an incubator for 1 hour, the CIM-plate was installed on a device station in the incubator and then, background values were measured. […]

B1: 10D6: mouse anti-Ang2 monoclonal antibody from hybridoma KCLRF-BP-00295; heavy chain variable region SEQ ID NO: 7, light chain variable region SEQ ID NO: 9 (antibody, V domains shown)
VH: DVQLQESGPGLVKPSQSLSLTCTVTGYSITSDYAWNWIRQFPGNKLEWMGYINYSGNTDYNPSLKSRSSITRDTSKNQFFLQLNSVTTGDTATYYCARGNFEGAMDYWGQGTSVTVSS
VL: SIVMTQTPKFLLVSAGDRVTITCKASQSVSNDVAWYQQKPGQSPKLLIYYASNRYPGVPDRFTGSGYGTDFTFTISTVQAEDLAVYFCQQDYSSPWTFGGGTKLEIK
modifications: Synthetic (Heavy chain variable region of an anti-Ang2 antibody); Synthetic (Light chain variable region of anti-Ang2 antibody)
weight of normal mice [1]: neither abnormal weight loss/gain | vascular toxicity (morphology of blood vessels, CD31 staining) ([1]; after 20 days): no vascular toxicity | time from which internalization of the Tie2 receptor started (Tie2 receptor; 2 ug/ml Ang2 and 10 ug/ml antibody): 30 min | location of internalized Tie2 and antibody (Tie2 receptor; anti-EEA1 antibody dye): located in an early endosome | phosphorylation of Tie2 and Akt in lung tissue in vivo (Tie2 and Akt): considerable effect of phosphorylating Tie2 and a protein, Akt | binding between HUVEC cells and HL-60 cells induced by TNF-a [2]: remarkably suppressed | migration of lymphatic endothelial cells [3]: increased
